In assay [1] the target is T1, N-terminal intrinsically disordered region (IDR) of ATG8 INTERACTING PROTEIN1 (ATI1) (Arabidopsis thaliana, UniProt O82775 1-180).
T1 sequence (looked up): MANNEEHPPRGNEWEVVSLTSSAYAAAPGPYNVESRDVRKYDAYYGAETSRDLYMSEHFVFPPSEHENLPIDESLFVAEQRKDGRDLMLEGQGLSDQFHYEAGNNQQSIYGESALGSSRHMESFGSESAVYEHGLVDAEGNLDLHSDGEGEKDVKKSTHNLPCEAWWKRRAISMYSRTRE
In words: MST.

Assay [2] concerns the target T1, N-terminal intrinsically disordered …. In words: NMR titration.

Numbering of substitutions follows the chain as printed. No end group written: not given here.

The term Kd denotes the free concentration of one partner at which half of the binding sites on the other are occupied at equilibrium, for simple one-to-one binding. Read a high Kd as weaker binding.

B1: His6-SUMO-NcGN^AGO1 (N-coil plus globular N-domain of Arabidopsis AGO1), wild type N-coil (domain or fragment, Arabidopsis thaliana, UniProt O04379-2 172-335, looked up)
chain: SSSKAFKFPMRPGKGQSGKRCIVKANHFFAELPDKDLHHYDVTITPEVTSRGVNRAVMKQLVDNYRDSHLGSRLPAYDGRKSLYTAGPLPFNSKEFRINLLDEEVGAGGQRREREFKVVIKLVARADLHHLGMFLEGKQSDAPQEAAQVADIVSRELPTSRIRY
modifications: red maleimide fluorophore on Cys192 (Monolith NT Protein Labeling Kit Red - Maleimide)
In the case of B1, the affinity in assay [1], expressed as Kd, was 11 µM.

B2: His6-SUMO-NcGN^AGO1 K178E (domain or fragment, Arabidopsis thaliana, UniProt O04379-2 172-335, looked up)
chain: B1 chain with K7E
modifications: red maleimide fluorophore on Cys192 (Monolith NT Protein Labeling Kit Red - Maleimide)
In assay [1], B2 came in with a Kd of 47 µM.

B3: 15N-labeled AGO1 N-coil peptide, wild type (peptide)
peptide: SSSKAFKFPMRPGKGQSGKRC
modifications: also: 15N-labeled
Regarding B3, the binding result in assay [2] was “binds”.

Source of the values: paper doi:10.1101/2022.10.22.513346 (bioRxiv, 2022).
